These results are taken from publication PMC6089609 (Methods in cell biology, 2015).

The data set concerns the molecule itself. As to the kind of experiment: negative stain and cryo-electron microscopy of assemblies on liposomes.

B1: EndophilinA1 (natural protein, human, UniProt Q99962 1-352, looked up)
chain: MSVAGLKKQFHKATQKVSEKVGGAEGTKLDDDFKEMERKVDVTSRAVMEIMTKTIEYLQPNPASRAKLSMINTMSKIRGQEKGPGYPQAEALLAEAMLKFGRELGDDCNFGPALGEVGEAMRELSEVKDSLDIEVKQNFIDPLQNLHDKDLREIQHHLKKLEGRRLDFDYKKKRQGKIPDEELRQALEKFDESKEIAESSMFNLLEMDIEQVSQLSALVQAQLEYHKQAVQILQQVTVRLEERIRQASSQPRREYQPKPRMSLEFPTGDSTQPNGGLSHTGTPKPSGVQMDQPCCRALYDFEPENEGELGFKEGDIITLTNQIDENWYEGMLHGHSGFFPINYVEILVALPH
Turning to B1, the binding result was “binds”.
